Results on 4 sequences are retold here after the supplement of paper PMC5998384.

Series [1] relates to HeLa Kyoto. The series is described as follows: solubility in G1/S (NP-40 vs SDS abundance) (log2 ratio); higher = more soluble. As to conditions: cell cycle stage: G1/S.
For series [2], the system named is HeLa Kyoto. The series is described as follows: solubility change mitosis vs G1/S (difference of NP-40 vs SDS log2 ratios) (log2 ratio difference); higher = more soluble in mitosis.
The test system of series [3] is HeLa Kyoto. The series is described as follows: melting temperature (median over replicates), in situ; higher = more thermally stable.
Series [4] deals with HeLa Kyoto. The series is described as follows: thermal stability score vs G1/S (z-score of summed log2 fold changes over temperatures); higher = more thermally stable than in G1/S.
Setting [5] is: cell cycle stage: early G1 (4.5 h after nocodazole release).
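Wherever melting temperature (median over replicates), in situ is given: HeLa Kyoto cells synchronized by double thymidine or nocodazole block, proteins quantified by TMT10plex mass spectrometry, three independent biological replicates.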
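Wherever solubility change mitosis vs G1/S (difference of NP-40 vs SDS log2 ratios) is given: synchronized HeLa Kyoto cells (double thymidine block for G1/S, nocodazole release for mitosis), protein amounts in NP-40 versus SDS lysates quantified by mass spectrometry, three biological replicates.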
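Wherever solubility in G1/S (NP-40 vs SDS abundance) is given: HeLa Kyoto cells arrested at G1/S by double thymidine block, proteins quantified by TMT10plex mass spectrometry in mild NP-40 versus SDS extracts, three biological replicates.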
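Wherever thermal stability score vs G1/S (z-score of summed log2 fold changes over temperatures) is given: synchronized HeLa Kyoto cells, proteins quantified by TMT10plex mass spectrometry, three biological replicates, mitosis taken 0.5 h after nocodazole release, G1/S directly after double thymidine block.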

As to “MERAISPGLLVRALLLLLLLLGLAARTVAAGRARGLPAPTAEAAFGLGAAAAPTSATRVPAAGAVAAAEVTVEDAEALPAAAGEQEPRGPEPDDETELRPRGRSLVIISTLDGRIAALDPENHGKKQWDLDVGSGSLVSSSLSKPEVFGNKMIIPSLDGALFQWDQDRESMETVPFTVESLLESSYKFGDDVVLVGGKSLTTYGLSAYSGKVRYICSALGCRQWDSDEMEQEEDILLLQRTQKTVRAVGPRSGNEKWNFSVGHFELRYIPDMETRAGFIESTFKPNENTEESKIISDVEEQEAAIMDIVIKVSVADWKVMAFSKKGGHLEWEYQFCTPIASAWLLKDGKVIPISLFDDTSYTSNDDVLEDEEDIVEAARGATENSVYLGMYRGQLYLQSSVRISEKFPSSPKALESVTNENAIIPLPTIKWKPLIHSPSRTPVLVGSDEFDKCLSNDKFSHEEYSNGALSILQYPYDNGYYLPYYKRERNKRSTQITVRFLDNPHYNKNIRKKDPVLLLHWWKEIVATILFCIIATTFIVRRLFHPHPHRQRKESETQCQTENKYDSVSGEANDSSWNDIKNSGYISRYLTDFEPIQCLGRGGFGVVFEAKNKVDDCNYAIKRIRLPNRELAREKVMREVKALAKLEHPGIVRYFNAWLEAPPEKWQEKMDEIWLKDESTDWPLSSPSPMDAPSVKIRRMDPFATKEHIEIIAPSPQRSRSFSVGISCDQTSSSESQFSPLEFSGMDHEDISESVDAAYNLQDSCLTDCDVEDGTMDGNDEGHSFELCPSEASPYVRSRERTSSSIVFEDSGCDNASSKEEPKTNRLHIGNHCANKLTAFKPTSSKSSSEATLSISPPRPTTLSLDLTKNTTEKLQPSSPKVYLYIQMQLCRKENLKDWMNGRCTIEERERSVCLHIFLQIAEAVEFLHSKGLMHRDLKPSNIFFTMDDVVKVGDFGLVTAMDQDEEEQTVLTPMPAYARHTGQVGTKLYMSPEQIHGNSYSHKVDIFSLGLILFELLYPFSTQMERVRTLTDVRNLKFPPLFTQKYPCEYVMVQDMLSPSPMERPEAINIIENAVFEDLDFPGKTVLRQRSRSLSSSGTKHSRQSNNSHSPLPSN [EIF2AK3]”, the “solubility in G1/S (log2)” value in the series on HeLa Kyoto [1] stood at 0.0589. Also, in the series with HeLa Kyoto [2], the “solubility change mitosis (log2)” value is -0.0251. Moreover, the melting temperature in the series on HeLa Kyoto [3] (cell cycle stage: G1/S) was 51 °C. Further, the figures for the thermal stability score in the series with HeLa Kyoto [4] (setting [5]) and with HeLa Kyoto [4] (cell cycle stage: mitosis) were -0.111 and 0.409, respectively.
In the case of “MERASLIQKAKLAEQAERYEDMAAFMKGAVEKGEELSCEERNLLSVAYKNVVGGQRAAWRVLSSIEQKSNEEGSEEKGPEVREYREKVETELQGVCDTVLGLLDSHLIKEAGDAESRVFYLKMKGDYYRYLAEVATGDDKKRIIDSARSAYQEAMDISKKEMPPTNPIRLGLALNFSVFHYEIANSPEEAISLAKTTFDEAMADLHTLSEDSYKDSTLIMQLLRDNLTLWTADNAGEEGGEAPQEPQS [SFN]”, the “solubility in G1/S (log2)” value in the series with HeLa Kyoto [1] was 0.311. Moreover, in the series on HeLa Kyoto [2], the “solubility change mitosis (log2)” value amounted to 0.358. Also, the melting temperature stood at 52.6 °C in the series on HeLa Kyoto [3] (cell cycle stage: G1/S) and 53.1 °C with HeLa Kyoto [3] (cell cycle stage: mitosis). For the same sequence, the thermal stability score was -2.86 in the series on HeLa Kyoto [4] (setting [5]) and -2.25 in the series with HeLa Kyoto [4] (cell cycle stage: mitosis).
On to “MERSPGEGPSPSPMDQPSAPSDPTDQPPAAHAKPDPGSGGQPAGPGAAGEALAVLTSFGRRLLVLIPVYLAGAVGLSVGFVLFGLALYLGWRRVRDEKERSLRAARQLLDDEEQLTAKTLYMSHRELPAWVSFPDVEKAEWLNKIVAQVWPFLGQYMEKLLAETVAPAVRGSNPHLQTFTFTRVELGEKPLRIIGVKVHPGQRKEQILLDLNISYVGDVQIDVEVKKYFCKAGVKGMQLHGVLRVILEPLIGDLPFVGAVSMFFIRRPTLDINWTGMTNLLDIPGLSSLSDTMIMDSIAAFLVLPNRLLVPLVPDLQDVAQLRSPLPRGIIRIHLLAARGLSSKDKYVKGLIEGKSDPYALVRLGTQTFCSRVIDEELNPQWGETYEVMVHEVPGQEIEVEVFDKDPDKDDFLGRMKLDVGKVLQASVLDDWFPLQGGQGQVHLRLEWLSLLSDAEKLEQVLQWNWGVSSRPDPPSAAILVVYLDRAQDLPLKKGNKEPNPMVQLSIQDVTQESKAVYSTNCPVWEEAFRFFLQDPQSQELDVQVKDDSRALTLGALTLPLARLLTAPELILDQWFQLSSSGPNSRLYMKLVMRILYLDSSEICFPTVPGCPGAWDVDSENPQRGSSVDAPPRPCHTTPDSQFGTEHVLRIHVLEAQDLIAKDRFLGGLVKGKSDPYVKLKLAGRSFRSHVVREDLNPRWNEVFEVIVTSVPGQELEVEVFDKDLDKDDFLGRCKVRLTTVLNSGFLDEWLTLEDVPSGRLHLRLERLTPRPTAAELEEVLQVNSLIQTQKSAELAAALLSIYMERAEDLPLRKGTKHLSPYATLTVGDSSHKTKTISQTSAPVWDESASFLIRKPHTESLELQVRGEGTGVLGSLSLPLSELLVADQLCLDRWFTLSSGQGQVLLRAQLGILVSQHSGVEAHSHSYSHSSSSLSEEPELSGGPPHITSSAPELRQRLTHVDSPLEAPAGPLGQVKLTLWYYSEERKLVSIVHGCRSLRQNGRDPPDPYVSLLLLPDKNRGTKRRTSQKKRTLSPEFNERFEWELPLDEAQRRKLDVSVKSNSSFMSRERELLGKVQLDLAETDLSQGVARWYDLMDNKDKGSS [ESYT1]”, for which the “solubility in G1/S (log2)” value with HeLa Kyoto [1] is 0.0161. Besides, the “solubility change mitosis (log2)” value in the series on HeLa Kyoto [2] was -0.113. The results for the melting temperature with HeLa Kyoto [3] (cell cycle stage: G1/S) and in the series with HeLa Kyoto [3] (cell cycle stage: mitosis) were 49.1 °C and 50.1 °C, respectively. Further, the thermal stability score was determined as 2.16 in the series on HeLa Kyoto [4] (setting [5]) and 4.68 in the series on HeLa Kyoto [4] (cell cycle stage: mitosis).
As to “MESAGLEQLLRELLLPDTERIRRATEQLQIVLRAPAALPALCDLLASAADPQIRQFAAVLTRRRLNTRWRRLAAEQRESLKSLILTALQRETEHCVSLSLAQLSATIFRKEGLEAWPQLLQLLQHSTHSPHSPEREMGLLLLSVVVTSRPEAFQPHHRELLRLLNETLGEVGSPGLLFYSLRTLTTMAPYLSTEDVPLARMLVPKLIMAMQTLIPIDEAKACEALEALDELLESEVPVITPYLSEVLTFCLEVARNVALGNAIRIRILCCLTFLVKVKSKALLKNRLLPPLLHTLFPIVAAEPPPGQLDPEDQDSEEEELEIELMGETPKHFAVQVVDMLALHLPPEKLCPQLMPMLEEALRSESPYQRKAGLLVLAVLSDGAGDHIRQRLLPPLLQIVCKGLEDPSQVVRNAALFALGQFSENLQPHISSYSREVMPLLLAYLKSVPLGHTHHLAKACYALENFVENLGPKVQPYLPELMECMLQLLRNPSSPRAKELAVSALGAIATAAQASLLPYFPAIMEHLREFLLTGREDLQPVQIQSLETLGVLARAVGEPMRPLAEECCQLGLGLCDQVDDPDLRRCTYSLFAALSGLMGEGLAPHLEQITTLMLLSLRSTEGIVPQYDGSSSFLLFDDESDGEEEEELMDEDVEEEDDSEISGYSVENAFFDEKEDTCAAVGEISVNTSVAFLPYMESVFEEVFKLLECPHLNVRKAAHEALGQFCCALHKACQSCPSEPNTAALQAALARVVPSYMQAVNRERERQVVMAVLEALTGVLRSCGTLTLKPPGRLAELCGVLKAVLQRKTACQDTDEEEEEEDDDQAEYDAMLLEHAGEAIPALAAAAGGDSFAPFFAGFLPLLVCKTKQGCTVAEKSFAVGTLAETIQGLGAASAQFVSRLLPVLLSTAQEADPEVRSNAIFGMGVLAEHGGHPAQEHFPKLLGLLFPLLARERHDRVRDNICGALARLLMASPTRKPEPQVLAALLHALPLKEDLEEWVTIGRLFSFLYQSSPDQVIDVAPELLRICSLILADNKIPPDTKAALLLLLTFLAKQHTDSFQAALGSLPVDKAQELQAVLGLS [IPO4]”, in the series on HeLa Kyoto [1], the “solubility in G1/S (log2)” value was -0.204. Moreover, the “solubility change mitosis (log2)” value in the series with HeLa Kyoto [2] was -0.104. The melting temperature with HeLa Kyoto [3] (cell cycle stage: G1/S) was found to be 49.6 °C; in the series on HeLa Kyoto [3] (cell cycle stage: mitosis), 49.9 °C. The thermal stability score stood at 0.678 in the series with HeLa Kyoto [4] (setting [5]) and 2.82 in the series with HeLa Kyoto [4] (cell cycle stage: mitosis).
